Legend:
[1] = molecular target: soluble TACE M-domain (wild type) (Homo sapiens) (UniProt P78536); assay: SPR
[2] = molecular target: recombinant soluble TACE ECD (human) (UniProt P78536); assay: SPR

Kd [1]: 2.3 nM
Kd [2]: 2 nM
Substance: MEDI3622 (antibody)

— publication PMC5098442
